Sequences and labels used below:
B1: Arf-GAP with dual PH domain-containing protein 1 (Homo sapiens), O75689 (parent)
chain: MAKERRRAVLELLQRPGNARCADCGAPDPDWASYTLGVFICLSCSGIHRNIPQVSKVKSVRLDAWEEAQVEFMASHGNDAARARFESKVPSFYYRPTPSDCQLLREQWIRAKYERQEFIYPEKQEPYSAGYREGFLWKRGRDNGQFLSRKFVLTEREGALKYFNRNDAKEPKAVMKIEHLNATFQPAKIGHPHGLQVTYLKDNSTRNIFIYHEDGKEIVDWFNALRAARFHYLQVAFPGAGDADLVPKLSRNYLKEGYMEKTGPKQTEGFRKRWFTMDDRRLMYFKDPLDAFARGEVFIGSKESGYTVLHGFPPSTQGHHWPHGITIVTPDRKFLFACETESDQREWVAAFQKAVDRPMLPQEYAVEAHFKHKP

In the test the parent is B1. As to conditions: with ki13b_human KIF13B.
Consider Y211R, for which the “effect of a mutation on the interaction” value is on record as “disrupting interaction strength”.

Take Y211G: the “effect of a mutation on the interaction” value was “disrupting interaction strength”.

The values above are taken from IntAct's records for PubMed 21057110.
